T1: rhesus monkey CD22-ECD-His protein (rhesus monkey, UniProt H9G1X2 18-686)
T1 construct: extracellular domain; also called monkey CD22 protein
T1 sequence: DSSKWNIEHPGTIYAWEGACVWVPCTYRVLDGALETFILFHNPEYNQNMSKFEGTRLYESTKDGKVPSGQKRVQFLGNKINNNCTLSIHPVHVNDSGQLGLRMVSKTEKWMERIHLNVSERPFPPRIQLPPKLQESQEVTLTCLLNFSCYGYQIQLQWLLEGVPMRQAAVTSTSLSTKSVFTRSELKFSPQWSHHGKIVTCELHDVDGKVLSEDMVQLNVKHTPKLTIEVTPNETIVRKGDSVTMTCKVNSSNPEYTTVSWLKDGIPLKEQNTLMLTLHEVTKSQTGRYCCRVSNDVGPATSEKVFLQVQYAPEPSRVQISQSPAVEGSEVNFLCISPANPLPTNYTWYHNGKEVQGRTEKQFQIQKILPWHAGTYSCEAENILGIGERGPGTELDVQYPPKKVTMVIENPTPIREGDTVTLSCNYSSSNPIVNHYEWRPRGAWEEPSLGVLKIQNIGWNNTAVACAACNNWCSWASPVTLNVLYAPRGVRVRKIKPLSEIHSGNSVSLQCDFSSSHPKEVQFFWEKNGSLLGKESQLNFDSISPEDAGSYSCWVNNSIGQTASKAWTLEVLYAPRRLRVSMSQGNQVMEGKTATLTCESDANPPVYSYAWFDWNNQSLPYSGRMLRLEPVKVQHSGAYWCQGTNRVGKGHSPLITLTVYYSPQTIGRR

T2: human CD22-ECD-His protein (human, UniProt P20273 20-687)
T2 construct: Recombinant, from HEK293E cells; also called hCD22-ECD-His; human CD22-His protein; not shown: His tag
T2 sequence: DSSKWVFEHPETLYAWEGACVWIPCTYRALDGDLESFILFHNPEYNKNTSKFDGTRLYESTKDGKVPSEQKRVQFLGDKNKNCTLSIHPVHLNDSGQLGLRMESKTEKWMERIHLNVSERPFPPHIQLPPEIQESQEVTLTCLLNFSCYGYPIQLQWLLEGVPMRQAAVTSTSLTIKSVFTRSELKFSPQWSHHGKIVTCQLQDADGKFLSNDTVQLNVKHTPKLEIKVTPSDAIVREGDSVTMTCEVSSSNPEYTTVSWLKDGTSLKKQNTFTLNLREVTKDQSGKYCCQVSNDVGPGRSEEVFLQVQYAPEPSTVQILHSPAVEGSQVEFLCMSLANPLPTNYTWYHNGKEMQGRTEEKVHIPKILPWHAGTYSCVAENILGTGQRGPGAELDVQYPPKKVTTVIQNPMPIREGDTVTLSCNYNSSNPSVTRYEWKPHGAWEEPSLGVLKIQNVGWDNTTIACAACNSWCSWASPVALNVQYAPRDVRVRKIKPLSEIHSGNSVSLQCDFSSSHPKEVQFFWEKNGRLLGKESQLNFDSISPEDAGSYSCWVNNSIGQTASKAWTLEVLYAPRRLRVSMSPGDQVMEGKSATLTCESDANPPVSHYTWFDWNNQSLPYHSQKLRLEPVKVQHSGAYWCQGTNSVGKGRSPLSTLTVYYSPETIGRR

T3: human CD22 domain1-4-His (human, UniProt P20273 20-425)
T3 construct: also called hCD22 domain1-4-His; not shown: His tag
T3 sequence: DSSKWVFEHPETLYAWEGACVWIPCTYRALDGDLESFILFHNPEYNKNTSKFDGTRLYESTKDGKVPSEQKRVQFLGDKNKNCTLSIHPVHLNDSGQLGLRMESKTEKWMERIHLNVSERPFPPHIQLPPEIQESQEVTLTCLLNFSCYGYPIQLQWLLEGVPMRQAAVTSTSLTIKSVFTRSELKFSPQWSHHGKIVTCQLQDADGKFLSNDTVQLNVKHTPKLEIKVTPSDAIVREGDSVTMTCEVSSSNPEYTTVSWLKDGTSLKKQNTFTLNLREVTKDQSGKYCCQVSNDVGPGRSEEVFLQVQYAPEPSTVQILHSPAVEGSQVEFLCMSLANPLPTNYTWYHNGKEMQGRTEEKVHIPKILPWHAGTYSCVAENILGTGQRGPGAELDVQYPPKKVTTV


What was measured:
[1] = molecular target: T1, rhesus monkey CD22-ECD-His protein; assay: SPR (Biacore), antibody captured on Protein A chip, rhesus CD22 in solution
[2] = molecular target: T2, human CD22-ECD-His protein; assay: SPR (Biacore), antibody captured on Protein A chip, CD22-ECD-His in solution
Method in brief: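 Antibody captured on Protein A chip, then human CD22-ECD-His injected for 240 s at 30 μL/min, 5 concentrations from 200 nM (1:1 dilution), dissociation up to 600 s, in HBS-EP+ at 25° C. Responses double-referenced; apparent KD and kinetic constants fitted to a Langmuir 1:1 model.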

human CD22 domain1-4-His = molecular target: T3, human CD22 domain1-4-His; assay: ELISA, plate coated with human CD22 domain1-4-His

Binder | Kd [1] [nM] | koff [1] [s⁻¹] | kon [1] [M⁻¹ s⁻¹] | Kd [2] [nM] | koff [2] [s⁻¹] | kon [2] [M⁻¹ s⁻¹] | binding result (human CD22 domain1-4-His)
F2.151.13 (antibody, human IgG1, lambda, V domains shown, Chimeric IgG1 lambda) VH: QVHLQQPGTELMKPGASVKLSCKATGYTFRDYWLEWVKQRPGHGLEWIGEILPGSGNAYYNEKFKGKATFTADTSSNTAYMQLSSLTTEDSAIYYCARVYSNWYFDAWGKGTTVTVSS VL: QAVVTQESALTTSPGETVTLTCRSSTGAVTTSNYANWVQEKPDHLFTGLIGGTNNQAPGVPARFSGSLIGDKAALTISGAQTEDEAIYFCALWFSNHWVFGGGTKLTVLG | 27.5 | 0.000528 | 19200 | 22.7 | 0.000533 | 23500 | no binding
F1.200.11 (antibody, human IgG1, kappa, V domains shown, Chimeric IgG1 kappa) VH: QNQLVQSGPELKKPGETVKISCKASGYTFTTAGMQWVQKMPGKGFKWIGWINTLSGEPKYAEDFKGRFAFSLETSATTAYLQISNLKNEDTATYFCARAYYSNLYWYFDVWGTGTTVTVSS VL: DIVMTQSQKFMSTTVGDRVTITCKASQNVVTAVAWYQQKPGQSPKVLIYSASNRYSGVPDRFTGSGSGTDFTLTISNMHSEDLANYFCHQYSSYPFTFGSGTKLEIKR | 44.2 | 0.000596 | 13500 | 102 | 0.00102 | 9980 | no binding

The next binders have a lower Kd [1] than those just listed; values first:

Kd [1] [nM] | koff [1] [s⁻¹] | kon [1] [M⁻¹ s⁻¹] | Kd [2] [nM] | koff [2] [s⁻¹] | kon [2] [M⁻¹ s⁻¹] | binding result (human CD22 domain1-4-His) | Binder
17.3 | 0.000448 | 25900 | 0.514 | 0.000154 | 299000 | no binding | F1.105.11 (antibody, human IgG1, kappa, V domains shown, Chimeric IgG1 kappa) VH: EVQLQQSGPVLVKPGASVKMSCKASGYTFSDYFMNWVKQSHGKSLEWIGIINSYSGGTSYNQKFKGKATLTVDKSSSTAYMELNSLTSEDSAVYYCARWMDYWGQGTSVTVSS VL: DVQITQSPSYLAASPGETITINCRTSESISKHLAWYQEKPGKTNKLLIYSGSTLQSGIPSRFSGSGSGTDFTLTISSLEPEDFAMYYCQQHNEYPWTFGGGTKLEIKR
23.1 | 0.0016 | 69200 | 1.08 | 0.000244 | 225000 | no binding | F1.192.1 (antibody, human IgG1, kappa, V domains shown, Chimeric IgG1 kappa) VH: AVQLQQSGVELVRPGASVKLSCTGSDFNIKEDYIHWVKQRPEQGLEWIGWIDPENGDTEYASKFQGKATITADTSSNTAYLQLSSLTSEDTAVYYCATYGSLDYWGQGTTLTVSS VL: DIKMTQSPSSMYAFLGERVTITCKASQGINSFLTWFQQKPGKSPKTLIYRANRLVDGVPSRFSGSGSGQDYSLTISSLEYEDVGIYYCLQYDEFPRTFGGGTKLEIKR

From patent US20240084003A1 (SIMCERE ZAIMING PHARMACEUTICAL, published 2024)
